In the RNAGym collection of RNA variant scans (doi:10.1093/nar/gkz1192):

B1: CPEB3 Ribozyme (parent)
chain: UAACAGGGGGCCACAGCAGAAGCGUUCACGUCGCAGCCCCUGUCAGAUUCUGGUGAAUCUGCGAAUUCUGCUGUAUAUCUC

Variants of: B1
Assay: self-cleavage, relative activity (ratio to wild type); higher = more cleavage; in vitro, sequencing
Summary of the method: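 Relative activity was defined as the cleaved/total read fraction for a variant divided by the same fraction for the unmutated ribozyme. CPEB3 self-cleaving ribozyme libraries were made by rounds of error-prone PCR, barcoded, and transcribed in vitro with T7 RNA polymerase for 5 hours at 37°C, and cleavage ran through transcription plus a 15 min DNase I step before EDTA. Illumina sequencing of template-switched reverse transcripts gave the reads, and DNA sequencing mapped the barcodes. Averages come from three batches, using variants with at least 5 reads.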

Variant	self-cleavage
U67A G70A	0.45
U67A G70C	0.23
A65G U80C	0.59
A65G U80A	0.53
A65G U80G	0.66
U66C U74C	0.66
U66C U74A	0.62
U67A A77U	0.39
U67A A77G	0.57
U66A U76C	0.57
U66C U80G	0.49
U66C U80C	0.45
U66C U80A	0.48
U66A U69C	0.26
U66A U69A	0.32
U66C A75U	0.4
U66C A75C	0.54
U66C A75G	0.28
U67C G70U	0.26
U67C G70A	0.18
U67C G70C	0.39
U67A U80C	0.58
U67A U80A	0.58
U67C U76A	0.3

Variant	self-cleavage
U67C U76C	0.3
A65U U66C	0.38
U67C U72C	0.29
U67C U72A	0.33
U67C U72G	0.22
A65U A77G	0.2
A65U A77U	0.25
U66G U80C	0.54
U66G U80A	0.67
A65U U72C	0.36
A65U U72G	0.33
A65U U72A	0.23
U67C U78C	0.35
U67C U78G	0.12
U67C U78A	0.29
U66C C81U	0.44
U66C C81A	0.54
U67A U72G	0.35
U67A U72C	0.49
U67A U72A	0.38
U66C C68U	0.39
U67A A75G	0.54
U67A A75U	0.65
U67C C71G	0.21

Variant	self-cleavage
U66G	0.48
U66A	0.51
U66C	0.44
U66G U69A	0.47
U66G U69C	0.31
U67A C68U	0.33
U66A U74A	0.85
U66A U74G	0.59
U66A U74C	0.86
U67G C68U	0.44
A65U U80C	0.38
A65U U80A	0.15
A65U U80G	0.21
A65U U69A	0.3
A65U U69C	0.45
U67G C79U	0.51
U67G A75U	0.6
U67G G70C	0.21
U67G A77C	0.32
A65U U74A	0.44
A65U C68A	0.21
A65U C68U	0.31
U66C C79U	0.39
U66C C79A	0.38

Variant	self-cleavage
U67A U76C	0.58
U67A U76A	0.68
U67G	0.4
U67A	0.54
U67C	0.32
U66G U78C	0.41
A65U	0.33
U66A U67A	0.26
U66A U67C	0.33
U67C A75U	0.26
U67C A75G	0.35
A65U U67C	0.28
A65U U67A	0.02
U67C C81G	0.16
U67C C81U	0.37
U66C C71A	0.25
U66C C71U	0.43
A65U U76C	0.24
A65U U76A	0.19
U66G G70A	0.27
U66A A75U	0.68
U66G C68U	0.38
U66G C68G	0.29
U67C A77G	0.3

Variant	self-cleavage
U67C A77U	0.34
A65U C81A	0.43
U66C G73A	0.81
U66C G73U	1.02
U66C G73C	0.58
U67C C68U	0.46
U67C C68A	0.38
U66C U67G	0.32
U66C U67A	0.25
U66C U67C	0.32
U67A U78C	0.52
U67A U78A	0.64
U67C C79U	0.32
U67C C79A	0.49
U66G A75U	0.67
U66C U76C	0.43
U66C U76G	0.39
U66C U76A	0.41
U67A C71A	0.3
U67A C71U	0.11
U67A C71G	0.33
U67A C81G	0.92
A65G U78G	0.44
U67C U74A	0.31

Variant	self-cleavage
U67C U74C	0.37
U67C G73C	0.46
U67C G73A	0.34
U67C G73U	0.46
U66A U80G	0.64
U66A U80A	0.49
U66A U80C	0.5
U66A U72C	0.59
U66A U72A	0.58
U66A G73A	1.04
U67C U69C	0.32
U67C U69G	0.45
U67C U69A	0.33
U66C U78C	0.36
U66C U78A	0.43
U66C G70U	0.22
U66C G70A	0.35
U67C U80A	0.32
U67C U80C	0.4
A65U U78C	0.18
A65U A75U	0.36
A65U A75G	0.2
U66C U69A	0.3
U66C U69G	0.31

Variant	self-cleavage
U66C U69C	0.34
U66C A77G	0.4
U66C A77U	0.34
U67A G73C	1.07
U67A G73A	1.05
U66A A77G	0.45
U66A A77U	0.65
U66C U72A	0.39
U66C U72C	0.45
U66C U72G	0.46
U67A C79A	0.82
U67A U69C	0.4
U67A U69A	0.3
U67A U74A	0.8
U67A U74G	0.81
U67A U74C	0.92
A65U G73U	0.57
A65U G73A	0.29
U66G U72A	0.24
U66G U72C	0.61
U67G U69C	0.5
U66A U78A	0.38
U66A U78C	0.31
